Experimental data as given in article PMC4338608.

What was measured:
Assay in all cases: resonant mirror detection
[1] = biological target: GST-NHE1cd mutant M3 (K513KK→AAA) (rat (Rattus norvegicus))
[2] = biological target: recombinant human calmodulin with four extra N-terminal amino acids Gly-Ser-His-Met (human)
[3] = biological target: GST-NHE1cd mutant M1 (K513KKQETKR→AAAQETAA) (rat (Rattus norvegicus))
[4] = biological target: GST-NHE1cd mutant M2 (R556FNKKYVKK→…) (rat (Rattus norvegicus))

Kd [1] [nM]	koff [1] [s⁻¹]	kon [1] [M⁻¹ s⁻¹]	Kd [2] [nM]	Kd [3] [nM]	kon [3] [M⁻¹ s⁻¹]	Kd [4] [nM]	kon [4] [M⁻¹ s⁻¹]	Substance
545	0.065	120000	100	–	–	–	–	recombinant 4.1R FERM domain (from UniProt P11171 210-488) (domain or fragment)
–	–	–	–	4790	250	26100	240	exon 5-encoded human 4.1R^80 polypeptide (GST fusion) (domain or fragment)
